Laboratory results reported in US20260250379A1 (HANGZHOU SUMGEN BIOTECH, published 2026).
Where a chain is given by its changes, count along the chain named.

B1: humanized antibody RB4-G1-018 (antibody, human IgG1, kappa, V domains shown)
VH: QVQLVQSGAEVKKPGASVKVSCKASGYTFTSYWMHWVRQAPGQGLEWIGEINPSNGRTNYNEKFKSRATLTVDKSTSTAYMELSSLRSEDTAVYYCARDRYDEGNAMDYWGQGTTVTVSS
VL: DIQMTQSPSSLSASVGDRVTITCRASQDITNYLNWYQQKPGKAPKLLIYYTSRLHSGVPSRFSGSGSGTEYTLTISSLQPDDFATYYCQQGDTLPRTFGQGTRLEIKR
B2: humanized antibody RB4-G1-019 (antibody, human IgG1, kappa, V domains shown)
VH: B1 VH with I48M, A68V, A79V
VL: B1 VL
B3: humanized antibody RB4-G1-020 (antibody, human IgG1, kappa, V domains shown)
VH: B1 VH with I48M, A68V, L70M, V72R, K74T, A79V
VL: B1 VL
B4: humanized antibody RB4-G1-022 (antibody, human IgG1, kappa, V domains shown)
VH: B1 VH
VL: B1 VL with E70D, L73F, D81E, F83I
B5: chimeric antibody 1A2-7 (antibody, V domains shown)
VH: QVQLQQPGAELVKPGASVKLSCKASGYTFTSYWMHWVKQRPGQGLEWIGEINPSNGRTNYNEKFKSKATLTVDKSSSTAYMQLNSLTSEDSAVYYCARDRYDEGNAMDYWGQGTSVTVSS
VL: DIVMTQTTSSLSASLGDRVTISCRASQDITNYLNWYQQKPDGTVKLLIYYTSRLHSGVPSRFSGSGSGTDYSLTISNLEQEDIATYFCQQGDTLPRTFGGGTKLEIK
B6: chimeric antibody 3A2-18 (antibody, V domains shown)
VH: B5 VH with Q1E, M81V
VL: B5 VL
notes: Full chains are not tied by name
B7: chimeric antibody 3G9-1 (antibody, V domains shown)
VH: QVQLQQPGAELVKPGASVKLSCKASGYTFTSYWMHWVKQRPGQGLEWIGEINPSNGRTNYNEKFKSKATLIVDKSSSTAYMQLSSLTSEDSAVYYCARGIYYGYDYAMDYWGQGTSVTVSS
VL: B5 VL with V3Q, Q6H, T30S, D92N, R96P
notes: as for B6
B8: chimeric antibody 5E11-2 (antibody, V domains shown)
VH: EVKLEESGGGLVQPGGSMKLSCAASGFTFSDAWMDWVRQSPEKGLEWVAEIRSKPNNHATYYAESVKGRFTISRDDSKSSVYLQMNSLRAEDTGIYYCTRTTDYSMDYWGQGTSVTVSS
VL: DIQMTQSPASLAVSLGQRATISCRASQSVSASSYSYMHWYQQKPGQPPKLLIKYASNLQSGVPARFSGSGSGTDFTLNIHPVEEEDSATYYCQHSWEIPRTFGGGTKLEIK
notes: as for B6

Biological target: T1, Human LILRB4/CD85k/ILT3 Protein (ECD, His Tag), Sino Biological (human, UniProt Q8NHJ6 22-259)
T1 construct: extracellular domain; It is not tied to this bought protein; also called LILRB4 protein; not shown: His tag
Assay: ELISA, human LILRB4 ECD-His coated, HRP goat anti-human IgG Fc, OD450

Binder	EC50 (read off the curve)
B1	~30 ng/mL
B2	~30 ng/mL
B3	~30 ng/mL
B4	~30 ng/mL

Biological target: T2, LILRB4 on human mononuclear leukemia cells THP-1 (human, UniProt Q8NHJ6 22-448)
T2 construct: whole, on cells; The protein is endogenous to the cells; also called LILRB4 positive cells THP-1
Assay: flow cytometry on THP-1 cells, PE goat anti-human IgG Fc, MFI

Binder	EC50 (read off the curve)
B1	~30 ng/mL
B2	~30 ng/mL
B3	~30 ng/mL
B4	~40 ng/mL

Biological target: T3, Human LILRB1/CD85/ILT2/ILR1 Protein (ECD, His Tag), Sino Biological (human, UniProt Q8NHL6 24-461)
T3 construct: extracellular domain; not shown: His tag
T3 sequence (Q8NHL6 24-461): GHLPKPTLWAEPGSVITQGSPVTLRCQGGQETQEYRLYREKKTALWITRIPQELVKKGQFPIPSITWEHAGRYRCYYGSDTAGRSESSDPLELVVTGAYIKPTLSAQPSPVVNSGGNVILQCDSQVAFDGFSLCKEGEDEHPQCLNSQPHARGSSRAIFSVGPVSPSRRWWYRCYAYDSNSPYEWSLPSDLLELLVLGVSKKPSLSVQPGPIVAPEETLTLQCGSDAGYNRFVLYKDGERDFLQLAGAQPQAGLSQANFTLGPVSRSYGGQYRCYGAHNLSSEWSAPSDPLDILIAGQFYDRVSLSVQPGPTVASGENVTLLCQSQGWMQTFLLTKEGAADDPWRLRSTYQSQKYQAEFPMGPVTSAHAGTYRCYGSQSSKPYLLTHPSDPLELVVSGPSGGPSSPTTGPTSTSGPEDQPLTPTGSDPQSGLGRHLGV
Assay: ELISA, LILRB family proteins (His tag) coated, antibody at 10 ug/mL, HRP goat anti-human IgG Fc, OD450

Binder	binding result
B5	no binding (tested: 10 ug/mL)
B6	no binding (tested: 10 ug/mL)
B7	no binding (tested: 10 ug/mL)
B8	no binding (tested: 10 ug/mL)

Biological target: T4, Human LILRB5/CD85c/LIR-8 Protein (ECD, His Tag), Sino Biological (human, UniProt O75023 24-458)
T4 construct: extracellular domain; not shown: His tag
T4 sequence (O75023 24-458): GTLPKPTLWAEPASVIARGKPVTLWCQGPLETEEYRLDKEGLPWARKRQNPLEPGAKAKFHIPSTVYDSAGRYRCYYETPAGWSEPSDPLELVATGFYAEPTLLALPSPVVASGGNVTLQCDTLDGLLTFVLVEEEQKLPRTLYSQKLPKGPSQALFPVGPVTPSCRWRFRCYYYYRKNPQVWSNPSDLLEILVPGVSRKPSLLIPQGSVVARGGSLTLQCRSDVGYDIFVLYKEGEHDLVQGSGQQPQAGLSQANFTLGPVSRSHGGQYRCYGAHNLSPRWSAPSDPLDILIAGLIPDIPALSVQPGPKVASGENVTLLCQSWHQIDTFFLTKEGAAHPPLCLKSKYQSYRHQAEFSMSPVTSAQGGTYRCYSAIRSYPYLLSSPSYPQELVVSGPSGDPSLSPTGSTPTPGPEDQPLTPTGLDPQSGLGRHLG
Assay: as above

Binder	binding result
B5	no binding (tested: 10 ug/mL)
B6	no binding (tested: 10 ug/mL)
B7	no binding (tested: 10 ug/mL)
B8	no binding (tested: 10 ug/mL)

Biological target: T5, Human LILRB2/ILT4/LIR-2 Protein (ECD, His Tag), Sino Biological (human, UniProt Q8N423 22-460)
T5 construct: extracellular domain; not shown: His tag
T5 sequence (Q8N423 22-460): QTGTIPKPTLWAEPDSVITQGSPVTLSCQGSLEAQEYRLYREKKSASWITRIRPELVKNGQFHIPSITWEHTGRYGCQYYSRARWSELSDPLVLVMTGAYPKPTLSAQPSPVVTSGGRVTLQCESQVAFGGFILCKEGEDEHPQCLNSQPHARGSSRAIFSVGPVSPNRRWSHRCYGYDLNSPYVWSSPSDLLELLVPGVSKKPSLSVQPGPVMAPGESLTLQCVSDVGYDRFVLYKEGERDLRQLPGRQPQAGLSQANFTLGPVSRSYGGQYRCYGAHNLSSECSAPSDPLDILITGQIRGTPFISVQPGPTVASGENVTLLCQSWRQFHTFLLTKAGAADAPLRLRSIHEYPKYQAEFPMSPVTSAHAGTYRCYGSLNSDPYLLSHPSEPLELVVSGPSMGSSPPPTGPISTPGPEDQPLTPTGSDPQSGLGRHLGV
Assay: as above

Binder	binding result
B5	no binding (tested: 10 ug/mL)
B6	no binding (tested: 10 ug/mL)
B7	no binding (tested: 10 ug/mL)
B8	no binding (tested: 10 ug/mL)

Biological target: T6, Human LILRB3/LIR3/ILT5/CD85a Protein (ECD, His Tag), Sino Biological (human, UniProt O75022 24-443)
T6 construct: extracellular domain; not shown: His tag
T6 sequence (O75022 24-443): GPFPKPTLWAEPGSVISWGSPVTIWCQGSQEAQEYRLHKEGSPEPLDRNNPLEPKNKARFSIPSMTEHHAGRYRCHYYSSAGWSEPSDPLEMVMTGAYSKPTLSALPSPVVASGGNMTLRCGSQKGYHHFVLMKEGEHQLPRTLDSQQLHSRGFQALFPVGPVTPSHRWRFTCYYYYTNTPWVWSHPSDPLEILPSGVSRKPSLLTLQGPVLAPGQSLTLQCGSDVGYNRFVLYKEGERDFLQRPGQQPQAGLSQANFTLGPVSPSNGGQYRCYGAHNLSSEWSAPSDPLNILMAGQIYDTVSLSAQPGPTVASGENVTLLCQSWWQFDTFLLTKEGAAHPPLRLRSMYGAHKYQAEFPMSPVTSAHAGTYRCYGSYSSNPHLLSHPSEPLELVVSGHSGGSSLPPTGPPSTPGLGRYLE
Assay: as above

Binder	binding result
B5	no binding (tested: 10 ug/mL)
B6	no binding (tested: 10 ug/mL)
B7	no binding (tested: 10 ug/mL)
B8	no binding (tested: 10 ug/mL)

Biological target: T7, LILRB4 on LILRB4 effector reporter cells (jurkat-LILRB4) (UniProt Q8NHJ6 22-448)
Assay: cell-based or functional assay

Binder	EC50 (read off the curve); luciferase RLU, blocking of APOE
B5	~0.03 ng/mL

Biological target: T8, LILRB4 (Beijing ACROBiosystems, article number LI4-H52H7, 6xHis label) (human, UniProt Q8NHJ6 22-259)
T8 construct: Analyte (mobile phase) in the BIACORE 8K assay; also called Human LILRB4; not shown: 6xHis label
Assay: SPR, BIACORE 8K; antibody captured on Protein A chip, LILRB4-6xHis as analyte
Protocol: A BIACORE 8K biomacromolecule interactor (GE Company) was adopted to analyze the affinity of an antibody. A Series S Sensor Chip Protein A Chip (GE Company) was used for capturing an antibody to be detected, the concentration of the antibody to be detected was set to be 15 μg/mL, and the sample was fed at a speed of 10 μl/min until RU=500; LILRB4 (Beijing ACROBiosystems, article number: LI4-H52H7, 6×His label, and the theoretical molecular weight: 28.2 Kda) was used as a mobile phase, 6 concentration gradients (0.0977 nM-200 nM) were used, and the binding time was 180 sec; and the dissociation time was 300 sec. The result of the affinity of the antibody to be detected is as set forth in follows: […]

Binder	Kd	koff	kon
B1	2.81 nM	0.00433 s⁻¹	1.54e+06 M⁻¹ s⁻¹
B2	2.77 nM	0.00343 s⁻¹	1.24e+06 M⁻¹ s⁻¹
B3	3.29 nM	0.00834 s⁻¹	2.53e+06 M⁻¹ s⁻¹
B4	2.33 nM	0.00418 s⁻¹	1.8e+06 M⁻¹ s⁻¹

Biological target: T7, LILRB4 on LILRB4 effector reporter …
Assay: cell-based or functional assay
Remark: another data set of the same source

Binder	EC50 (read off the curve); luciferase RLU, blocking of APOE
B6	~10 ng/mL

Biological target: human LILRB4 on 293T-hLILRB4 cells (human, UniProt Q8NHJ6 22-448)
Assay: cell-based or functional assay

Binder	EC50 (read off the curve); ADCC reporter induction multiple
B1	~60 ng/mL
B2	~60 ng/mL
B3	~60 ng/mL
B4	~50 ng/mL

Biological target: T7, LILRB4 on LILRB4 effector reporter …
Assay: cell-based or functional assay
Remark: another data set of the same source

Binder	EC50 (read off the curve); luciferase RLU, blocking of APOE
B1	~10 ng/mL
B2	~10 ng/mL
B3	~20 ng/mL
B4	~20 ng/mL

Biological target: T1, Human LILRB4/CD85k/ILT3 Protein (ECD, …)
Assay: ELISA, human LILRB4 ECD-His coated, HRP goat anti-human IgG Fc, OD450
Remark: another data set of the same source

Binder	EC50 (read off the curve)
B5	~30 ng/mL
B6	~30 ng/mL
B7	~20 ng/mL
B8	~50 ng/mL
